# Experimental data as given in article PMC3817407.
# Several values for one entry are separate records, joined by “and”; a condition that tells them apart may be missing. Equal entries are not always repeated.
# T1: ECF02_2817
# T1 chain: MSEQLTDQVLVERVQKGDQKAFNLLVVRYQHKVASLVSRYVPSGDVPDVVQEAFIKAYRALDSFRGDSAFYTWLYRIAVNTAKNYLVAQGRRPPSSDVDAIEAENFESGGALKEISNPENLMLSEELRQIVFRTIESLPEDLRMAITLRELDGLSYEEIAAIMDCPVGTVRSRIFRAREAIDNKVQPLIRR
# T2: ECF17_1691
# T2 chain: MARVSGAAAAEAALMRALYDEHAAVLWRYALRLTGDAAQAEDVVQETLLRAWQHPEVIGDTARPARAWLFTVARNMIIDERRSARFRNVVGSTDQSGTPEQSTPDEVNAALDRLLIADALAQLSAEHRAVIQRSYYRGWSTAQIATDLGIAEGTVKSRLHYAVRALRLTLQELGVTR
# T3: ECF12_807
# T3 chain: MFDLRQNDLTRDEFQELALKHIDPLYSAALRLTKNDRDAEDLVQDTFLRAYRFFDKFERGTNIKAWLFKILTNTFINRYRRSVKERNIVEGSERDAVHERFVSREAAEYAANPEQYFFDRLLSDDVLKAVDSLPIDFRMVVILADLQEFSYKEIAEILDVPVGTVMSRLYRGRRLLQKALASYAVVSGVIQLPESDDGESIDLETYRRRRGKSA
# T4: ECF22_1147
# T4 chain: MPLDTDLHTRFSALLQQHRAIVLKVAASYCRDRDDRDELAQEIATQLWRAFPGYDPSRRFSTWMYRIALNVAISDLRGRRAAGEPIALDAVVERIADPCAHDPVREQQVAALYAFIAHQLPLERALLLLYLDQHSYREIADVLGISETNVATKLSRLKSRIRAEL
# T5: ECF16_973
# T5 chain: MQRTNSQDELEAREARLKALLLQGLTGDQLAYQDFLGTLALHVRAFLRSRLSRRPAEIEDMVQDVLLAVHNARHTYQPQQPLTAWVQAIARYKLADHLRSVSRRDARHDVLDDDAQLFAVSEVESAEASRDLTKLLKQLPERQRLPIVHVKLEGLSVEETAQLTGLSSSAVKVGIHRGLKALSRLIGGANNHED
# T6: ECF15_436
# T6 chain: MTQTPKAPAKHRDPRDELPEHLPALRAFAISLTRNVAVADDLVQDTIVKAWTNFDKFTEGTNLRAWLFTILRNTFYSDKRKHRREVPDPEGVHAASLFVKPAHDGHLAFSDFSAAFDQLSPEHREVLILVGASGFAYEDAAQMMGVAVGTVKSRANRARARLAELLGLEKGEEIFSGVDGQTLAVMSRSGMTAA
# T7: ECF22_4450
# T7 chain: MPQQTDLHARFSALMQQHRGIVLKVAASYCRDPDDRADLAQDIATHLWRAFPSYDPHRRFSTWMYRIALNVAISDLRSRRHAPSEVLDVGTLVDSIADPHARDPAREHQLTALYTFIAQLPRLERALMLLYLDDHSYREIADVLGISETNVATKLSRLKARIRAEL
# T8: ECF35_3582
# T8 chain: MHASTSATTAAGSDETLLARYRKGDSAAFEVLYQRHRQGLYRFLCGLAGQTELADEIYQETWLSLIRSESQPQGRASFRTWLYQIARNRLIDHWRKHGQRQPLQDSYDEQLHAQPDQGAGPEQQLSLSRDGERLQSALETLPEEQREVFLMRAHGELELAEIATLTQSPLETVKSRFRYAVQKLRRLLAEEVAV
# T9: ECF27_4265
# T9 chain: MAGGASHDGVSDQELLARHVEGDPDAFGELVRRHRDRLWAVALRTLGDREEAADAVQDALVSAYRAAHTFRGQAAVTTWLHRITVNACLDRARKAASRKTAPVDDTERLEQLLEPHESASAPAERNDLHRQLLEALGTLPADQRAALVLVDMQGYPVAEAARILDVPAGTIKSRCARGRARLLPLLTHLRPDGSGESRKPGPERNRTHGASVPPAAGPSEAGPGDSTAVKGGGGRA
# T10: ECF04_1609
# T10 chain: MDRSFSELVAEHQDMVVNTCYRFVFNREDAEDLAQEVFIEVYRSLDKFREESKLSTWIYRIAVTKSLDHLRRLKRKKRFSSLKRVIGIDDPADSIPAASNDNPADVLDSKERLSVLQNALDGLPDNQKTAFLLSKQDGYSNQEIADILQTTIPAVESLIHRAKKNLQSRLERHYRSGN
# T11: ECF11_987
# T11 chain: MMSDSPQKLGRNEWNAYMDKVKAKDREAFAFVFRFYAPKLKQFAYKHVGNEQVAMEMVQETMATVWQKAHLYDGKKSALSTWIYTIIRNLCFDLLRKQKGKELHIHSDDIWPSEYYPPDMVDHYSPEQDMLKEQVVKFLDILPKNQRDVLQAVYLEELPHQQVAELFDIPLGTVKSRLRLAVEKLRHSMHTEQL
# T12: ECF03_1198
# T12 chain: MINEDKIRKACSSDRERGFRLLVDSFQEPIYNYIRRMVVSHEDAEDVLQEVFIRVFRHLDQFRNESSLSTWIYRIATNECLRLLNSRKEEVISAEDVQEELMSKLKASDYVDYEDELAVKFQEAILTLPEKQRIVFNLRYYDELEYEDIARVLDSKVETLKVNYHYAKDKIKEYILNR
# T13: ECF25_1643
# T13 chain: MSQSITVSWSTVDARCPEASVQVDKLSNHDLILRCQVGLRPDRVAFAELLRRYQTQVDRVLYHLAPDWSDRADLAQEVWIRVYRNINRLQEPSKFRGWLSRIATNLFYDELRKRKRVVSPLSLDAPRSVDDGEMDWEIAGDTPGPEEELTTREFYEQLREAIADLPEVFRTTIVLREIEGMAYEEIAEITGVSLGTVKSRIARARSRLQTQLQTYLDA
# T14: ECF16_3622
# T14 chain: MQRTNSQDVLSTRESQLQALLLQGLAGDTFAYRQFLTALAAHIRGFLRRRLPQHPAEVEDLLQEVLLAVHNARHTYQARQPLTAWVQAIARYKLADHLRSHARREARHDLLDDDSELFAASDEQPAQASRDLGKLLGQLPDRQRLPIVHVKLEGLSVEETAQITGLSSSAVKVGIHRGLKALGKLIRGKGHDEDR
# B1: AS33_375 (protein)
# chain: MMALSKKMLEQEPSEIELLLPWHAAGTLNARDARRVEDALARDPELAKQYAAIRGEYEETIHLNESLGAPSARAMQKLFGAIDAEPARETGSLPLSARIATFFASLSPRTLAWSASLGAVALVLQAGIIGAVLMKTQPTTFQTASLSTSAPITRELGAAVAPARALVRFTPEARVADITALLDSYQASIIGDAKGGMFRLQFDKAMSQDELASLLGRMQREKFVNLAVAAP
# B2: AS38_1322 (protein)
# chain: MSDGNDARPDARDGHDPGSDARDGHDPGSHARDGHDPGAGPFDGHGPGSDAGDGDDAGPDARDGHGAPAGPAGREQRKHPHDTHDMHDTHDTHAGKGTVNHGPAAQGPDAPGADGPATDEAALRAMMQRAVREMEPSDGTLEHLRRAVPARRARKRQALVGAAAAALFLGTAVPALVHVSNATGAGADPSVAGNASQAQGGASQGKDPAGGQSGVAGTGDTPEDRDKADPKETPGGKEPGAATGAPPSGVPSASSPADVPACAPGSLGPAVASSAEPDSTGVVYGSFRVTNVSSDGCTVTGPGTVVTASLGAAEATRIGTARHAAGDAAAGLPDPSLETASLALAPGAAYEVQFAWVPSETCPTTGGTTGGGSGGPSPDPSPTADTTAAGGTSAGGGEAGPTTQLITEDGPAEGSVSVTYTPEGGSGSATATVSNACAGTVYWTGLLADSGSGA
# B3: AS33_423 (protein)
# chain: MMAMSNTMPDPREPGDVEALLPWYAAGTLNARDARRVADALDRDPALARQYAVILEEYASTIELNESLGAPSSRAMQKLFAAIDAEPARAPGAGQGLGARFAGFFAGLSPKALAWSASVAGLALLLQAGLIGALLTWPHAAPVQTAAYQPQREVARAPASSPAPATVSPPAAAMADRAADAGKSTPPMVMAERSGGPVVRSLAPQSGPRVLVKFAPEARASEIAALLDQYNAVVVDSSRGGLFRLQFGTQSLSKQDQETLIGRLQKEPVVSVVLSAP
# How the values were obtained:
# ECF02_2817 = target: T1, ECF02_2817
# ECF17_1691 = target: T2, ECF17_1691
# ECF12_807 = target: T3, ECF12_807
# ECF22_1147 = target: T4, ECF22_1147
# ECF16_973 = target: T5, ECF16_973
# ECF15_436 = target: T6, ECF15_436
# ECF22_4450 = target: T7, ECF22_4450
# ECF35_3582 = target: T8, ECF35_3582
# ECF27_4265 = target: T9, ECF27_4265
# ECF04_1609 = target: T10, ECF04_1609
# ECF11_987 = target: T11, ECF11_987
# ECF03_1198 = target: T12, ECF03_1198
# ECF25_1643 = target: T13, ECF25_1643
# ECF16_3622 = target: T14, ECF16_3622
Binder,fold repression (ECF27_1331),fold repression (ECF26_4464),fold repression (ECF02_2817),fold repression (ECF17_1691),fold repression (ECF12_807),fold repression (ECF22_1147),fold repression (ECF16_973),fold repression (ECF15_436),fold repression (ECF22_4450),fold repression (ECF35_3582),fold repression (ECF27_4265),fold repression (ECF04_1609),fold repression (ECF11_987),fold repression (ECF03_1198),fold repression (ECF25_1643),fold repression (ECF16_3622)
B1,11.4,14.1,5.75,3.94,7.97,12.9,9.87,20.3,31,5.86,5.34,11.1,17.1,21.3,5.97 and 4.93,22.6
B2,5.61,5.74,4.35,2.81,5.77,6.04,4.09,5.64,6.3,2.8,2.33,4.63,10.4,5.72,4.12 and 4.01,4.56
B3,8.68,9.42,5.47,3.16,6.47,9.02,14.6,14.3,23.1,6.37,5.38,6.18,13.7,15,3.19 and 2.96,35.1
